Here are results for two substances from patent US20180335429.

For data set [1], the system named is MMP substrate, 5-FAM-GGPLGVRGKK(CPQ2)-PEG2-C, presented on the iron-oxide nanoparticle (ABN) surface.
In data set [2] the test system is T1, thrombin substrate, 5-FAM-GGfPRSGGGK(CPQ2)-PEG2-C, presented on the nanoparticle surface.
T1 sequence: GGFPRSGGGKC

recombinant MMP-9 (Enzo Life Sciences), sequence (chain, as listed by the source): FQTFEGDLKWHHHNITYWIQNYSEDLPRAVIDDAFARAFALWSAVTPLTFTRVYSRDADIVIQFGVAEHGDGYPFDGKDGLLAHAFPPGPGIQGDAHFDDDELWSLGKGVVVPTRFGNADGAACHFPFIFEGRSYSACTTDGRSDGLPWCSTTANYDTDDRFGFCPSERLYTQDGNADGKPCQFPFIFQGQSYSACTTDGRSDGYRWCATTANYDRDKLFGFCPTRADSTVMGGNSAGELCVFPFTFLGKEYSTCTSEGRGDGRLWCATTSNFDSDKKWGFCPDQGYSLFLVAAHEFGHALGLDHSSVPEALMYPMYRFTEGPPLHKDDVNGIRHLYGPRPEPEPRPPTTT

For thrombin (Haematologic Technologies), in data set [1], the “cleavage velocity (V) at 6 µM substrate, long tether end” value was “V at 6 µM of substrate decreased from 0.29 to 0.01 nM s^-1”; the “cleavage velocity (V) at 6 µM substrate, short tether end” value was “V at 6 µM of substrate decreased from 0.29 to 0.01 nM s^-1”; the “fold change of cleavage with tether length at 6 µM substrate” value is reported as “thrombin cleavage decreased 1-fold at the same substrate concentration”. Moreover, in data set [2], the “cleavage of the substrate at varying linker lengths” value is recorded as “thrombin cleavage of a thrombin-selective substrate (fPRSGGG ...) was optimally presented at an intermediate length”.

recombinant MMP-9 (Enzo Life Sciences): in data set [1], the “cleavage velocity (V) at 6 µM substrate, high end over the tether lengths tested (0, 4, 24 and 114 PEG subunits)” value is given as “cleavage velocity (V) increased from 0.24 to 0.96 nM s^-1 at 6 µM”; the “cleavage velocity (V) at 6 µM substrate, low end over the tether lengths tested (0, 4, 24 and 114 PEG subunits)” value is reported as “cleavage velocity (V) increased from 0.24 to 0.96 nM s^-1 at 6 µM”; the “fold change of cleavage with tether length at 6 µM substrate” value is given as “MMP9 cleavage was found to increase 4-fold for 6 µM of substrate”.
